# Assay results taken from patent US20230212587A1, “Mutant Hydroxyphenylpyruvate Dioxygenase Polypeptide, Encoding Gene Thereof and Use Therefor” (Beijing Dabeinong Biotechnology Co., Ltd., priority 2019, published 2023).
# System: Arabidopsis thaliana T1 plants
# Experiment: Topramezone tolerance of transgenic Arabidopsis thaliana T1 plants (pesticide damage grade by bleached leaf area, score, resistance evaluation)
# Assay type: in vivo
# Conditions: HPPD F372V mutants, Table 7
# How it was run: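 Eighteen days after sowing, wild-type and HPPD-transgenic T1 Arabidopsis receive a topramezone spray at 1×, 2× or 4× field rate (25–100 g ai/ha) or water. Seven days later each plant is graded by its proportion of bleached leaf area.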
Molecule,Resistance evaluation (topramezone 25 g ai/ha (1x)),Resistance evaluation (topramezone 100 g ai/ha (4x))
"BvHPPDm-F372V: Beta vulgaris HPPD mutant F372V, SEQ ID NO: 375 (protein, BvHPPDm-F372V Amino Acid Sequence) MGTLSPQPQTSPSQFKLVGYSNFIRVNPLSDLFPVKRFHHVEFWCGDATNVSRRFSWGLGMPIVAKSDLSTGNSVHASYLLRSGELHFLFTSPYSPSLSSPSSATIPTFSFSLFTSFLTSHGLAVRAVAVEVQDAEAAFHISVSNGASPVSPPIRLHDGVVLSEVHLYGDVVLRYVSTSSVVDGIFLPGFEEMLGESSFQELDFGLRRLDHAVGNVPELAPAIEYVKKFTGFHEFAEFTTEDVGTSESGLNSAVVANNDETVLFPMNEPVYGTKRKSQIQTYLEHNEGAGVQHLALMSEDIFWTLREMRKRSGLGGFEFMPSPPPTYYRNLRNRAADVLSEEQMKECEELGILVDKDDQGTLLQIVTKPIGDRPTMFIEIIQRIGCMMKDEEGKVYQKGGCGGFGKGNFSELFKSIEEYEKTLERKPIADTNAT",Poorly resistant,Non-resistant
"NtHPPDm-F372V: Nicotiana tabacum HPPD mutant F372V, SEQ ID NO: 377 (protein, NtHPPDm-F372V Amino Acid Sequence) MGKLETVTTTSAAAADDSSELTTNFKLVGFKNFIRTNPRSDFFSVKSFHHIEFWCGDATNTARRFSWSLGMPIAAKSDLSTGNSVHASYLLRPVSGSLQFLFTAPYSPSISTPSSAAIPSFSTSTHRSFTTTHGLGVRAVALEVENAYTAFSASVSRGAKPMFEPVTIDEQVAMAEVHLYGDVVLRFVSYLKDADNLVFLPGFEAMDETASYKELDYGIRRLDHAVGNVPELGPVVDYIKRFTGFHEFAEFTAEDVGTAESGLNSMVLANNDETVLLPLNEPVYGTKRKSQIQTYLEHNEGAGVQHLALVTEDIFKTLTEMRKRSGVGGFEFMPSPPPTYYKNLKNRAGDVLSDEQILACEELGILVDRDDQGTLLQIVTKPVGDRPTIFIEIIQRIGCMLKDGKGQVYQKGGCGGFGKGNFSELFRSIEEYEKTLEAKQANQVAAA",Poorly resistant,Non-resistant
"CsHPPDm-F372V: Cucumis sativus HPPD mutant F372V, SEQ ID NO: 379 (protein, CsHPPDm-F372V Amino Acid Sequence) MGKEADFPRAPSEATDGGATASQSEFELQGFDNFIRTNPKSDRFKVKRFHHIEFWCTDATNVARRFSWGLGMQIVAKSDLSTGNMTHASYLLRSGHLCFLFTAPYSPSIAAAQNLTPASTASIPSFDHSVCRSFSGTHGFGARAIALEVEDAEIAFRTSVAHGAKPSCPPIVLENRAVLSEVHLYGDVVLRYISYKNPVSGDNGENKPDEWFLPKFEAMEETASFPLDFGIRRLDHAVGNVPELGPAVSYLKGFTGFHEFAEFTAEDVGTSESGLNSMVLANNEEMVLLPINEPVFGTKRKSQIQTYLEHNEGAGVQHLALMSEDIFRTLREMRKRSSVGGFEFMPSPPPTYYKNLKSRAGDVLTDEQIKECEELGILVDKDDQGTLLQIVTKPVGDRPTIFIEIIQRLGCMMKDEEGKAFQKGGCGGFGKGNFSELFKSIEEYEKTLEAKRVSE",Poorly resistant,Non-resistant
"StHPPDm-F372V: Solanum tuberosum HPPD mutant F372V, SEQ ID NO: 381 (protein, StHPPDm-F372V Amino Acid Sequence) MGKQAATATATATATADDQQLPADIEDKYKLVGFNNFVRTNPRSDLFNVKRFHHIEFWCGDATNTARRFSWGLGLPIAAKSDLSTGNSVHASYLLRSSSSQLQFLFTAPYSPAISTPSSSSIPTFSVSSHRSFTETHGLGVRAIALEVENSRLAFSTCVSHGAKPVSEPVILNDEVVISEVHLYGDVVLRFVSFLKDSNRFVFLPGFELVEGAQLDYGIRRLDHAVGNVPQLGPVVEYIKSFTGFHEFAEFTAEDVGTAESGLNSVVLANNDETVLFPLNEPVYGTKRKSQIQTYLEHNEGAGVQHLALVTEDIFRTLREMRKRSGIGGFEFMPSPPPTYYKNLKSRAGDILSDEQIKECEELGILVDRDDQGTLLQIVTKPVGDRPTIFLEIIQRIGCMLQNAEGELYQKGGCGGFGKGNFSELFKSIEEYEKTLEAKQNTQVAIA",Poorly resistant,Non-resistant
